Reference: US20080161234A1, “Composition Comprising Lactic Acid and Lactoferrin” (priority 2004, published 2008)

Tests used:
Format in all cases: cell-based
G. vaginalis = experiment: Minimal bactericidal concentration (MBC99) of LF on G. vaginalis strains; conditions: concentration at which 99% killing was obtained, fivefold serial steps
Method: (§1) G. vaginalis and P. bivia were cultured on chocolate-GL-plates for 48 h in anaerobic milieu. The bacteria were harvested and suspended in BHI for further incubation (4 hours at 37° C.). The bacteria were washed twice in Bactopeptone (BP, 0.2%). The concentration was adjusted spectrophotometrically and diluted to 1×10^7 bacteria per ml.
(§2) The procedure for the microbicidal assay with regard to G. vaginalis and P. bivia was as described above except that the microplate was incubated under anaerobic conditions (2 h). Thereafter droplets of the solutions were analyzed for viable bacteria on blood agar plates after 48 h of anaerobic incubation at 37° C.
Instead of 0.2% BP 0.34% BHI was used. […] The plate was incubated for 20 hours.

L. gasseri = experiment: Survival of L. gasseri in lactate with LF; conditions: LF 2 mg/ml, lactate 1%, 0.34% BHI, CO2, 3 h
Method: L. gasseri and L. jensenii were cultured on chocolate-agar plates for 24 h in 5% CO2/95% air. They were thereafter harvested and added to BHI (0.34%). After washing the bacterial solutions were adjusted spectrophotometrically and diluted to 8×10^6 bacteria/ml.
(§3) Washed cells were suspended in 0.2% BP (pH 7.0) or BHI medium diluted 1/10 (0.34%, pH 6.7-6.9) (Difco, USA). The concentration of bacterial or fungal cells was spectrophotometrically adjusted. LF or peptide, serially diluted in BHIdil or BP by twofold steps (unless otherwise stated), were added in triplicate to the wells of a microtiterplate (200 ul per well). The bacterial or yeast cell solutions were added in 10 ul volumes to give a final concentration of approximately 2×10^5 cells per ml. The concentration of the stock solution was always checked by viable counts. The microplate was incubated at 37° C. in a humid chamber for 2 h unless otherwise stated. Five ul were taken from each well and added as a drop onto a blood agar plate and incubated over night at 37° C. In some experiments more thorough viable counts were performed and the killing was expressed as remaining colony forming units in relation to the inoculum. The lower limit for detection of microorganisms was 200 CFU/ml.
L. gasseri survived better in the assay system than did L. jensenii. Undiluted lactate (5%) affected the survival of Lactobacillus.

[1] = test system: P. bivia strains (Pb 57, Pb 62); experiment: Growth inhibition of P. bivia by LF, spectrophotometric, 20 h anaerobic; conditions: LF in various concentrations, no lactate, 0.34% BHI
Method: The bacteria were incubated in 0.34% BHI under anaerobic conditions for 20 hours.
as §1, §2
The microbicidal assay was modified in order to obtain survival conditions for G. vaginalis and P. bivia. Instead of 0.2% BP 0.34% BHI was used. The bacterial strains were analyzed with only LF added in various concentrations to the wells (no lactate present). The plate was incubated for 20 hours.

E. coli 06 = experiment: Microbicidal microplate-droplet assay, E. coli; design: key to E. coli killing, growth grade in droplet assay: +++ means that the number of colony forming units (CFU) contained within 5 ul of a droplet formed a smooth layer of bacteria; ++ means that a “ruffled” area is seen; 0 means that no CFU were found in triplicate samples of 5 ul (>99.95 killed of the inoculum)
Method: as §3, with “The bacterial strains S. aureus 1800 (CCUG 1800), E. coli 06, and the yeast C. albicans (ATCC 64549) have been used in the microplate assay. All microorganisms were cultured in brain heart infusion medium (BHI) on a shaker over night at 37° C. A volume of the culture was transferred to a new tube with BHI and incubated for two more h on the shaker. The bacteria were harvested in the log phase, washed once and thereafter suspended in the broth used for the microplate assay. The suspension was adjusted spectrophotometrically and diluted to a concentration of approximately 4×10^6 cells per ml at 650 nm. Washed” for “Washed”, “CFU/ml. The antimicrobial activity of human LF was analysed by the microbicidal assay described above. Different microbes such as C. albicans, E. coli and S. aureus were analysed with respect to their survival in lactate (not containing the inert gel base, which makes the gel unsuitable for the microbicidal assay) containing LF.” for “CFU/ml.”

[2] = test system: S. aureus 1800 (CCUG 1800); experiment: Microbicidal microplate-droplet assay, S. aureus; design: key to S. aureus killing, growth grade in droplet assay: +++ = the number of colony forming units contained within 5 ul of a droplet formed a smooth layer of bacteria.; (+++): (parenthesis = a tendency towards a ruffled area compared with the control).; 0 = no bacteria in triplicate samples of 5 ul (>99.95 killed of the inoculum)
Method: as §3, with “The bacterial strains S. aureus 1800 (CCUG 1800), E. coli 06, and the yeast C. albicans (ATCC 64549) have been used in the microplate assay. All microorganisms were cultured in brain heart infusion medium (BHI) on a shaker over night at 37° C. A volume of the culture was transferred to a new tube with BHI and incubated for two more h on the shaker. The bacteria were harvested in the log phase, washed once and thereafter suspended in the broth used for the microplate assay. The suspension was adjusted spectrophotometrically and diluted to a concentration of approximately 4×10^6 cells per ml at 650 nm. Washed” for “Washed”, “CFU/ml. The antimicrobial activity of human LF was analysed by the microbicidal assay described above. Different microbes such as C. albicans, E. coli and S. aureus were analysed with respect to their survival in lactate (not containing the inert gel base, which makes the gel unsuitable for the microbicidal assay) containing LF.” for “CFU/ml.”

[3] = HLF 500 ug/ml, lactate 0.2%, 2 h incubation
[4] = HLF 500 ug/ml, lactate 0.2%, 5 h incubation
[5] = HLF 500 ug/ml, lactate 1%, 2 h incubation
[6] = HLF 500 ug/ml, lactate 1%, 5 h incubation
[7] = HLF 500 ug/ml, lactate 5%, 2 h incubation
[8] = HLF 500 ug/ml, lactate 5%, 5 h incubation
[9] = HLF 500 ug/ml, no lactal, 2 h incubation
[10] = HLF 500 ug/ml, no lactal, 5 h incubation

B1: LF: LF from human milk purchased from Sigma; single chain iron-binding glycoprotein (protein, UniProt P02788 20-710, looked up)
Lactotransferrin: GRRRSVQWCAVSQPEATKCFQWQRNMRKVRGPPVSCIKRDSPIQCIQAIAENRADAVTLDGGFIYEAGLAPYKLRPVAAEVYGTERQPRTHYYAVAVVKKGGSFQLNELQGLKSCHTGLRRTAGWNVPIGTLRPFLNWTGPPEPIEAAVARFFSASCVPGADKGQFPNLCRLCAGTGENKCAFSSQEPYFSYSGAFKCLRDGAGDVAFIRESTVFEDLSDEAERDEYELLCPDNTRKPVDKFKDCHLARVPSHAVVARSVNGKEDAIWNLLRQAQEKFGKDKSPKFQLFGSPSGQKDLLFKDSAIGFSRVPPRIDSGLYLGSGYFTAIQNLRKSEEEVAARRARVVWCAVGEQELRKCNQWSGLSEGSVTCSSASTTEDCIALVLKGEADAMSLDGGYVYTAGKCGLVPVLAENYKSQQSSDPDPNCVDRPVEGYLAVAVVRRSDTSLTWNSVKGKKSCHTAVDRTAGWNIPMGLLFNQTGSCKFDEYFSQSCAPGSDPRSNLCALCIGDEQGENKCVPNSNERYYGYTGAFRCLAENAGDVAFVKDVTVLQNTDGNNNEAWAKDLKLADFALLCLDGKRKPVTEARSCHLAMAPNHAVVSRMDKVERLKQVLLHQQAKFGRNGSDCPDKFCLFQSETKNLLFNDNTECLARLHGKTTYEKYLGPQYVAGITNLKKCSTSPLLEACEFLRK
MBC99 (G. vaginalis; G. vaginalis strain code 12): 500 µg/mL
MBC99 (G. vaginalis; G. vaginalis strain code 17): >2500 µg/mL
MBC99 (G. vaginalis; G. vaginalis strain code 23): 1000 µg/mL
MBC99 (G. vaginalis; G. vaginalis strain code 51): 100 µg/mL
MBC99 (G. vaginalis; G. vaginalis strain code 90): 4 µg/mL
MBC99 (G. vaginalis; G. vaginalis strain code 96): 100 to 500 µg/mL
survival of L. gasseri (L. gasseri): 18%
growth inhibition of P. bivia [1]: Growth inhibition
E. coli killing, growth grade in droplet assay (E. coli 06; [3]): ++
E. coli killing, percentage of bacteria remaining in relation to the inoculum (E. coli 06; [4]): 4%
E. coli killing, growth grade in droplet assay (E. coli 06; [5]): ++
E. coli killing, percentage of bacteria remaining in relation to the inoculum (E. coli 06; [6]): 5%
E. coli killing, percentage of bacteria remaining in relation to the inoculum (E. coli 06; [7]): 0 (0 means that no CFU were found in triplicate samples of 5 ul (>99.95 killed of the inoculum))
E. coli killing, percentage of bacteria remaining in relation to the inoculum (E. coli 06; [8]): 0 (0 means that no CFU were found in triplicate samples of 5 ul (>99.95 killed of the inoculum))
E. coli killing, growth grade in droplet assay (E. coli 06; [9]): +++
E. coli killing, growth grade in droplet assay (E. coli 06; [10]): +++
E. coli killing, percentage of bacteria remaining in relation to the inoculum (E. coli 06; HLF 2000 ug/ml, lactate 0.2%, 5 h incubation): 5%
E. coli killing, percentage of bacteria remaining in relation to the inoculum (E. coli 06; HLF 2000 ug/ml, lactate 1%, 5 h incubation): 9%
E. coli killing, percentage of bacteria remaining in relation to the inoculum (E. coli 06; HLF 2000 ug/ml, lactate 5%, 2 h incubation): 0 (0 means that no CFU were found in triplicate samples of 5 ul (>99.95 killed of the inoculum))
E. coli killing, percentage of bacteria remaining in relation to the inoculum (E. coli 06; HLF 2000 ug/ml, lactate 5%, 5 h incubation): 0 (0 means that no CFU were found in triplicate samples of 5 ul (>99.95 killed of the inoculum))
E. coli killing, growth grade in droplet assay (E. coli 06; HLF 2000 ug/ml, no lactal, 2 h incubation): ++
E. coli killing, percentage of bacteria remaining in relation to the inoculum (E. coli 06; HLF 2000 ug/ml, no lactal, 5 h incubation): 3%
E. coli killing, growth grade in droplet assay (E. coli 06; HLF 5000 ug/ml, lactate 0.2%, 2 h incubation): ++
E. coli killing, percentage of bacteria remaining in relation to the inoculum (E. coli 06; HLF 5000 ug/ml, lactate 0.2%, 5 h incubation): 0.4%
E. coli killing, percentage of bacteria remaining in relation to the inoculum (E. coli 06; HLF 5000 ug/ml, lactate 1%, 5 h incubation): 16%
E. coli killing, percentage of bacteria remaining in relation to the inoculum (E. coli 06; HLF 5000 ug/ml, lactate 5%, 2 h incubation): 0 (0 means that no CFU were found in triplicate samples of 5 ul (>99.95 killed of the inoculum))
E. coli killing, percentage of bacteria remaining in relation to the inoculum (E. coli 06; HLF 5000 ug/ml, lactate 5%, 5 h incubation): 0 (0 means that no CFU were found in triplicate samples of 5 ul (>99.95 killed of the inoculum))
E. coli killing, growth grade in droplet assay (E. coli 06; HLF 5000 ug/ml, no lactal, 2 h incubation): ++
E. coli killing, percentage of bacteria remaining in relation to the inoculum (E. coli 06; HLF 5000 ug/ml, no lactal, 5 h incubation): 2%
S. aureus killing, percentage of bacteria remaining in relation to the inoculum [2, 3]: 0 (0 = no bacteria in triplicate samples of 5 ul (>99.95 killed of the inoculum).)
S. aureus killing, percentage of bacteria remaining in relation to the inoculum [2, 4]: 0 (0 = no bacteria in triplicate samples of 5 ul (>99.95 killed of the inoculum).)
S. aureus killing, percentage of bacteria remaining in relation to the inoculum [2, 5]: 0 (0 = no bacteria in triplicate samples of 5 ul (>99.95 killed of the inoculum).)
S. aureus killing, percentage of bacteria remaining in relation to the inoculum [2, 6]: 0 (0 = no bacteria in triplicate samples of 5 ul (>99.95 killed of the inoculum).)
S. aureus killing, percentage of bacteria remaining in relation to the inoculum [2, 7]: 0 (0 = no bacteria in triplicate samples of 5 ul (>99.95 killed of the inoculum).)
S. aureus killing, percentage of bacteria remaining in relation to the inoculum [2, 8]: 0 (0 = no bacteria in triplicate samples of 5 ul (>99.95 killed of the inoculum).)
S. aureus killing, growth grade in droplet assay [2, 9]: (+++)
S. aureus killing, percentage of bacteria remaining in relation to the inoculum [2, 10]: 0.3%
microbicidal activity against S. aureus, LF compared with rHLF ([2]; without lactate, 0.25 and 0.125 mg/ml, 2 h of incubation): somewhat more active
